Test results: patent US20150266922

Key:
[1] = target: T1, SUMO1 EIL peptide SLRFLFEGQRIADNH (SEQ ID NO: 1)
T1 chain: SLRFLFEGQRIADNH

[2] = target: RanGAP modified with SUMO1, P63165
SLRFLYEG (SEQ ID NO: 38) = target: T2, SLRFLYEG (SEQ ID NO: 38)
T2 chain: SLRFLYEG

B1: Dipeptidyl peptidase 9 (DPP9), recombinant wild-type (protein)
chain: MRKVKKLRLDKENTGSWRSFSLNSEGAERMATTGTPTADRGDAAATDDPAARFQVQKHSWDGLRSIIHGSRKYSGLIVNKAPHDFQFVQKTDESGPHSHRLYYLGMPYGSRENSLLYSEIPKKVRKEALLLLSWKQMLDHFQATPHHGVYSREEELLRERKRLGVFGITSYDFHSESGLFLFQASNSLFHCRDGGKNGFMVSPMKPLEIKTQCSGPRMDPKICPADPAFFSFINNSDLWVANIETGEERRLTFCHQGLSNVLDDPKSAGVATFVIQEEFDRFTGYWWCPTASWEGSEGLKTLRILYEEVDESEVEVIHVPSPALEERKTDSYRYPRTGSKNPKIALKLAEFQTDSQGKIVSTQEKELVQPFSSLFPKVEYIARAGWTRDGKYAWAMFLDRPQQWLQLVLLPPALFIPSTENEEQRLASARAVPRNVQPYVVYEEVTNVWINVHDIFYPFPQSEGEDELCFLRANECKTGFCHLYKVTAVLKSQGYDWSEPFSPGEDEFKCPIKEEIALTSGEWEVLARHGSKIWVNEETKLVYFQGTKDTPLEHHLYVVSYEAAGEIVRLTTPGFSHSCSMSQNFDMFVSHYSSVSTPPCVHVYKLSGPDDDPLHKQPRFWASMMEAASCPPDYVPPEIFHFHTRSDVRLYGMIYKPHALQPGKKHPTVLFVYGGPQVQLVNNSFKGIKYLRLNTLASLGYAVVVIDGRGSCQRGLRFEGALKNQMGQVEIEDQVEGLQFVAEKYGFIDLSRVAIHGWSYGGFLSLMGLIHKPQVFKVAIAGAPVTVWMAYDTGYTERYMDVPENNQHGYEAGSVALHVEKLPNEPNRLLILHGFLDENVHFFHTNFLVSQLIRAGKPYQLQIYPNERHSIRCPESGEHYEVTLLHFLQEYL
SUMO1E67A, P63165
  hydrolysis of GP-AMC by DPP9: this activation was not observed in the presence of SUMO1 mutated in a single amino acid: SUMO1E67A
[1]
  hydrolysis of GP-AMC by recombinant DPP9: pure recombinant DPP8 and DPP9 are inhibited by the EIL peptide, also in the absence of SUMO1
SUMO1, P63165
  hydrolysis rate of GP-AMC by DPP9: the hydrolysis rate of GP-AMC by DPP9 was increased in the presence of SUMO1 in comparison to control reactions
SUMO2, P61956
SUMO2, P61956, sequence (P61956 1-93): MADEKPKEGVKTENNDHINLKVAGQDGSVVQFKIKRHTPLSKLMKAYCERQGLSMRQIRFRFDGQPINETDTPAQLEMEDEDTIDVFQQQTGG
  hydrolysis of GP-AMC by DPP9: SUMO1 but not SUMO2 can regulate DPP9 activity
SUMO2D71H, P61956
SUMO2D71H, P61956, sequence (P61956 other isoform, or with tags, fused parts or gaps): as the sequence (P61956 1-93) above, with D71H counted along it
  hydrolysis of GP-AMC by DPP9: DPP9 activity was increased in the presence of SUMO2 mutated in a single amino acid: D71H
RanGAP
  hydrolysis of GP-AMC by DPP9: DPP9 activity is increased when incubated with RanGAP modified by SUMO1, but not by unmodified RanGAP
[2]
  hydrolysis of GP-AMC by DPP9: DPP9 activity is increased when incubated with RanGAP modified by SUMO1, but not by unmodified RanGAP
SUMO2R61L, P61956
SUMO2R61L, P61956, sequence (P61956 1-93 R61L): as the sequence (P61956 1-93) above, with R61L counted along it
  hydrolysis of GP-AMC by DPP9: This activation was not observed in the presence of SUMO2R61L

B2: Dipeptidyl peptidase 8 (DPP8), recombinant (protein)
chain: MWKRSEQMKIKSGKCNMAAAMETEQLGVEIFETADCEENIESQDRPKLEPFYVERYSWSQLKKLLADTRKYHGYMMAKAPHDFMFVKRNDPDGPHSDRIYYLAMSGENRENTLFYSEIPKTINRAAVLMLSWKPLLDLFQATLDYGMYSREEELLRERKRIGTVGIASYDYHQGSGTFLFQAGSGIYHVKDGGPQGFTQQPLRPNLVETSCPNIRMDPKLCPADPDWIAFIHSNDIWISNIVTREERRLTYVHNELANMEEDARSAGVATFVLQEEFDRYSGYWWCPKAETTPSGGKILRILYEENDESEVEIIHVTSPMLETRRADSFRYPKTGTANPKVTFKMSEIMIDAEGRIIDVIDKELIQPFEILFEGVEYIARAGWTPEGKYAWSILLDRSQTRLQIVLISPELFIPVEDDVMERQRLIESVPDSVTPLIIYEETTDIWINIHDIFHVFPQSHEEEIEFIFASECKTGFRHLYKITSILKESKYKRSSGGLPAPSDFKCPIKEEIAITSGEWEVLGRHGSNIQVDEVRRLVYFEGTKDSPLEHHLYVVSYVNPGEVTRLTDRGYSHSCCISQHCDFFISKYSNQKNPHCVSLYKLSSPEDDPTCKTKEFWATILDSAGPLPDYTPPEIFSFESTTGFTLYGMLYKPHDLQPGKKYPTVLFIYGGPQVQLVNNRFKGVKYFRLNTLASLGYVVVVIDNRGSCHRGLKFEGAFKYKMGQIEIDDQVEGLQYLASRYDFIDLDRVGIHGWSYGGYLSLMALMQRSDIFRVAIAGAPVTLWIFYDTGYTERYMGHPDQNEQGYYLGSVAMQAEKFPSEPNRLLLLHGFLDENVHFAHTSILLSFLVRAGKPYDLQIYPQERHSIRVPESGEHYELHLLHYLQENLGSRIAALKVI
[1]
  hydrolysis of GP-AMC by recombinant DPP8: pure recombinant DPP8 and DPP9 are inhibited by the EIL peptide, also in the absence of SUMO1

B3: Dipeptidyl peptidase IV (DPPIV) (protein)
chain: SRKTYTLTDYLKNTYRLKLYSLRWISDHEYLYKQENNILVFNAEYGNSSVFLENSTFDEFGHSINDYSISPDGQFILLEYNYVKQWRHSYTASYDIYDLNKRQLITEERIPNNTQWVTWSPVGHKLAYVWNNDIYVKIEPNLPSYRITWTGKEDIIYNGITDWVYEEEVFSAYSALWWSPNGTFLAYAQFNDTEVPLIEYSFYSDESLQYPKTVRVPYPKAGAVNPTVKFFVVNTDSLSSVTNATSIQITAPASMLIGDHYLCDVTWATQERISLQWLRRIQNYSVMDICDYDESSGRWNCLVARQHIEMSTTGWVGRFRPSEPHFTLDGNSFYKIISNEEGYRHICYFQIDKKDCTFITKGTWEVIGIEALTSDYLYYISNEYKGMPGGRNLYKIQLSDYTKVTCLSCELNPERCQYYSVSFSKEAKYYQLRCSGPGLPLYTLHSSVNDKGLRVLEDNSALDKMLQNVQMPSKKLDFIILNETKFWYQMILPPHFDKSKKYPLLLDVYAGPCSQKADTVFRLNWATYLASTENIIVASFDGRGSGYQGDKIMHAINRRLGTFEVEDQIEAARQFSKMGFVDNKRIAIWGWSYGGYVTSMVLGSGSGVFKCGIAVAPVSRWEYYDSVYTERYMGLPTPEDNLDHYRNSTVMSRAENFKQVEYLLIHGTADDNVHFQQSAQISKALVDVGVDFQAMWYTDEDHGIASSTAHQHIYTHMSHFIKQCFSLP
[1]
  hydrolysis of GP-AMC by DPPIV: DPPIV is not inhibited by the EIL peptide, also in the presence of 13 µM peptide
SLRFLYEG (SEQ ID NO: 38)
  hydrolysis of GP-AMC by DPPIV: It has no inhibitory effect towards DPPIV, in the concentrations measured (up to 50 µM)
